Data from patent US20180362582A1 (SOCPRA SCIENCES SANT ET HUMAINES S E C, published 2018).
Numbered stars: 1 amine (or outer) side, 2 acyl side, 3 side chain; on linkers, the order of the positions; unused ones are H or OH. Bridge positions count the residues as written; N and C are the ends. Square brackets hold non-standard residues; d marks the D form. Ends that are not written are not given here. * marks the point of attachment. nonenoic acid = non-8-enoic acid residue (acyl cap with no amine) whose terminal alkene closes the ring by metathesis with the o-allyl-tyrosine, C=CCCCCCCC(=O)*; Tyr(3-All) = 3-allyl-tyrosine (allyl on ring carbon ortho to the phenol OH), C=CCc1cc(C[C@H](N[*:1])C(=O)[*:2])ccc1O[*:3]; OctenylA = alpha-methyl-octenylalanine = 2-(7-octenyl)alanine; 6‑(allylamino)hexanoyl = C=CCNCCCCCC(=O)*

T1: rat NTS2-YFP receptor (rat, UniProt Q63384 1-416)
T1 construct: whole, on cells; Used as cell membranes of transfected DRG-F11 cells; also called rNTS2-YFP; rNTS2
T1 sequence (Q63384 whole entry, looked up): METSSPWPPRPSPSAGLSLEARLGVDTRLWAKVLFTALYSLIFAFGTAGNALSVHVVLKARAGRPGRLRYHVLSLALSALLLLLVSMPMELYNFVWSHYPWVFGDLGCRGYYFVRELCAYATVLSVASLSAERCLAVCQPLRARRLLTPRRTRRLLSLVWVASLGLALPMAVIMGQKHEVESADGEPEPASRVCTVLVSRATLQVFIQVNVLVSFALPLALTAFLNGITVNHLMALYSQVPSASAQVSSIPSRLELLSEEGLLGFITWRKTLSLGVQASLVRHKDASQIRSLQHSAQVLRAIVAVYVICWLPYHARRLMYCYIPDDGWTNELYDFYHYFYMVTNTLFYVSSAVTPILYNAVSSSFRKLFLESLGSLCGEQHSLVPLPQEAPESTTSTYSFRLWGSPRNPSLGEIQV

B1: 1-M (or 1) c[nonenoic acid KPY(All)]IL (peptide)
peptide: {nonenoic acid}-KP[Tyr(3-All)]IL
modifications: staple (positions not given here); not fully specified (bridges)
notes: Macrocycle; E and Z isomers were not separated; also called compound 1
B2: 9 c[K(butenyl)KPY(All)]IL (peptide)
peptide: XKPXIL
modifications: residue 1 is N-butenyl-lysine; Tyr is o-allyl-tyrosine; the two joined by ring-closing metathesis; 24 ring atoms
notes: also called compound 9
B3: 3 c[OctenylAKPY(All)]IL (peptide)
peptide: [OctenylA]KPXIL
modifications: staple 1-4; not fully specified (residue 4); printed as 3 c[OctenylAKPY(All)]IL
notes: Diastereoisomer of compound 12; also called compound 3
B4: 10 c[K(pentenyl)KPY(All)]IL (peptide)
peptide: XKPXIL
modifications: residue 1 is N-pentenyl-lysine; Tyr is o-allyl-tyrosine; the two joined by ring-closing metathesis; 25 ring atoms
notes: also called compound 10

How the values were obtained:
hNTS1 receptor [1] = molecular target: T2, hNTS1 receptor (human (printed as hNTS1), UniProt P30989 1-418); assay: cell-based or functional assay
[2] = molecular target: hNTS1-Green fluorescent protein 10(GFP10) (human (printed as hNTS1), UniProt P30989 1-418); assay: cell-based or functional assay
hNTS1 receptor [3] = molecular target: T2, hNTS1 receptor; assay: competitive radioligand binding, 125I-[Tyr3]-NT, CHO-K1 membranes expressing hNTS1
hNTS1 receptor [4] = molecular target: T2, hNTS1 receptor; assay: competitive radioligand binding, 125I-[Tyr3]-NT, CHO-K1 membranes expressing hNTS1; Ki by Cheng-Prusoff
rat NTS2-YFP receptor [5] = molecular target: T1, rat NTS2-YFP receptor; assay: competitive radioligand binding, 125I-[Tyr3]-NT, DRG-F11 membranes expressing rNTS2-YFP
Description: (§1) DRG-F11 cells were cultured in DMEM supplemented with 10% FBS, 100 U/mL penicillin, 100 μg/mL streptomycin, and 20 mM HEPES. DRG-F11 were seeded at 2.2×10⁶ cells in a 10 cm Petri dish and transfected 24 h after plating with 10 μg of DNA coding for the rat NTS2-YFP receptor using Xtreme Gene™ HP as a transfection agent. Membrane preparation was conducted 48 h after transfection, as described below.
(§2) Transfected cells expressing the rNTS2-YFP receptor were used 48 h after transfection. Membranes were prepared by scraping cells off the culture dish with 50 mM Tris ph 7.5 and centrifuged at 15,000 g for 5 min at 4° C. The pellet was resuspended in 10 mM Tris, 1 mM EDTA pH 7.5 and sonicated for 30 s prior to be centrifugated at 15,000 g for 30 min at 4° C. The pellet was then re-suspended in binding 9 buffer. […] All other steps in binding experiments were unchanged comparing to the one using the NTS1 receptor.

rat NTS2-YFP receptor [6] = molecular target: T1, rat NTS2-YFP receptor; assay: displacement of radiolabeled neurotensin from rNTS2-YFP membranes by a single 1 µM dose
Description: as §1, §2

rat NTS2-YFP receptor [7] = molecular target: rat NTS2-YFP receptor (rat, UniProt Q63384 1-416); assay: as above
Description: as §1, §2

T2 sequence (P30989 whole entry): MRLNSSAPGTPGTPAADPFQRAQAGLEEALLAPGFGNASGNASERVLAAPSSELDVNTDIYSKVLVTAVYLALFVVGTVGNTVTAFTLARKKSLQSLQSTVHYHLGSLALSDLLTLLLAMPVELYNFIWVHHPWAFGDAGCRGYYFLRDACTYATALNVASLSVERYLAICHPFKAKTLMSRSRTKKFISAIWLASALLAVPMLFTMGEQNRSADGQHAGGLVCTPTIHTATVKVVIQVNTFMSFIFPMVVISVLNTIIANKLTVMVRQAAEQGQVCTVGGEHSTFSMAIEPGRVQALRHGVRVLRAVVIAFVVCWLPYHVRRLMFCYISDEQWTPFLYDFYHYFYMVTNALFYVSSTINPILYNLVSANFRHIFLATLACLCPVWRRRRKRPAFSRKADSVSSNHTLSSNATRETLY
Sequence of hNTS1-Green fluorescent protein 10(GFP10) (P30989 whole entry): as above

Binder | EC50 β-arr1 [2] [nM] | Ki (hNTS1 receptor [4]) [nM] | IC50 (rat NTS2-YFP receptor [5]) [nM] | % displ at 1 µM (rat NTS2-YFP receptor [6]) [%] | other results
B1 | 1500 | 5600 | – | – | EC50 G13 (hNTS1 receptor [1]): 433 nM; IC50 (hNTS1 receptor [3]): 394 nM
B2 | – | – | 47.2 | 104 | –
B3 | – | – | – | 96 | –
RRPYIL (also called neurotensin (8-13)) [NT 8-13 RRPYIL] | – | – | – | – | % displ at 1 µM (rat NTS2-YFP receptor [7]): 100%
{6‑(allylamino)hexanoyl}-KP[Tyr(3-All)]IL (staple (positions not given here); not fully specified (bridges), also called compound 6) [6 c[aminohex-6-enoic acid(All)KPY(All)]IL] | 96 | 656 | 2300 | 93 | –
B4 | – | – | 128 | 105 | –
